Assay results: patent publication US20110033518A1
Where “and” joins values, the source holds several entries; their conditions need not be identical. Equal entries are not always repeated.

How the values were obtained:
[1] = biological target: human ABCA1 transporter on stably transfected HeLa cells (human) (UniProt O95477); assay: two-step sequential competitive binding on ABCA1-transfected HeLa cells, competitor at 8 µM, tracer 125I-L-37pA
[2] = biological target: human ABCA1 transporter on stably transfected HeLa cells (human) (UniProt O95477); assay: direct binding of 125I-L-37pA at 1 µg/ml to ABCA1-transfected HeLa cells, 1 hour, 4 C; set-up: unit not given here
[3] = biological target: human ABCA1 transporter on stably transfected HeLa cells (human) (UniProt O95477); assay: cell-based or functional assay

Chain of UniProt O95477 (O95477 whole entry): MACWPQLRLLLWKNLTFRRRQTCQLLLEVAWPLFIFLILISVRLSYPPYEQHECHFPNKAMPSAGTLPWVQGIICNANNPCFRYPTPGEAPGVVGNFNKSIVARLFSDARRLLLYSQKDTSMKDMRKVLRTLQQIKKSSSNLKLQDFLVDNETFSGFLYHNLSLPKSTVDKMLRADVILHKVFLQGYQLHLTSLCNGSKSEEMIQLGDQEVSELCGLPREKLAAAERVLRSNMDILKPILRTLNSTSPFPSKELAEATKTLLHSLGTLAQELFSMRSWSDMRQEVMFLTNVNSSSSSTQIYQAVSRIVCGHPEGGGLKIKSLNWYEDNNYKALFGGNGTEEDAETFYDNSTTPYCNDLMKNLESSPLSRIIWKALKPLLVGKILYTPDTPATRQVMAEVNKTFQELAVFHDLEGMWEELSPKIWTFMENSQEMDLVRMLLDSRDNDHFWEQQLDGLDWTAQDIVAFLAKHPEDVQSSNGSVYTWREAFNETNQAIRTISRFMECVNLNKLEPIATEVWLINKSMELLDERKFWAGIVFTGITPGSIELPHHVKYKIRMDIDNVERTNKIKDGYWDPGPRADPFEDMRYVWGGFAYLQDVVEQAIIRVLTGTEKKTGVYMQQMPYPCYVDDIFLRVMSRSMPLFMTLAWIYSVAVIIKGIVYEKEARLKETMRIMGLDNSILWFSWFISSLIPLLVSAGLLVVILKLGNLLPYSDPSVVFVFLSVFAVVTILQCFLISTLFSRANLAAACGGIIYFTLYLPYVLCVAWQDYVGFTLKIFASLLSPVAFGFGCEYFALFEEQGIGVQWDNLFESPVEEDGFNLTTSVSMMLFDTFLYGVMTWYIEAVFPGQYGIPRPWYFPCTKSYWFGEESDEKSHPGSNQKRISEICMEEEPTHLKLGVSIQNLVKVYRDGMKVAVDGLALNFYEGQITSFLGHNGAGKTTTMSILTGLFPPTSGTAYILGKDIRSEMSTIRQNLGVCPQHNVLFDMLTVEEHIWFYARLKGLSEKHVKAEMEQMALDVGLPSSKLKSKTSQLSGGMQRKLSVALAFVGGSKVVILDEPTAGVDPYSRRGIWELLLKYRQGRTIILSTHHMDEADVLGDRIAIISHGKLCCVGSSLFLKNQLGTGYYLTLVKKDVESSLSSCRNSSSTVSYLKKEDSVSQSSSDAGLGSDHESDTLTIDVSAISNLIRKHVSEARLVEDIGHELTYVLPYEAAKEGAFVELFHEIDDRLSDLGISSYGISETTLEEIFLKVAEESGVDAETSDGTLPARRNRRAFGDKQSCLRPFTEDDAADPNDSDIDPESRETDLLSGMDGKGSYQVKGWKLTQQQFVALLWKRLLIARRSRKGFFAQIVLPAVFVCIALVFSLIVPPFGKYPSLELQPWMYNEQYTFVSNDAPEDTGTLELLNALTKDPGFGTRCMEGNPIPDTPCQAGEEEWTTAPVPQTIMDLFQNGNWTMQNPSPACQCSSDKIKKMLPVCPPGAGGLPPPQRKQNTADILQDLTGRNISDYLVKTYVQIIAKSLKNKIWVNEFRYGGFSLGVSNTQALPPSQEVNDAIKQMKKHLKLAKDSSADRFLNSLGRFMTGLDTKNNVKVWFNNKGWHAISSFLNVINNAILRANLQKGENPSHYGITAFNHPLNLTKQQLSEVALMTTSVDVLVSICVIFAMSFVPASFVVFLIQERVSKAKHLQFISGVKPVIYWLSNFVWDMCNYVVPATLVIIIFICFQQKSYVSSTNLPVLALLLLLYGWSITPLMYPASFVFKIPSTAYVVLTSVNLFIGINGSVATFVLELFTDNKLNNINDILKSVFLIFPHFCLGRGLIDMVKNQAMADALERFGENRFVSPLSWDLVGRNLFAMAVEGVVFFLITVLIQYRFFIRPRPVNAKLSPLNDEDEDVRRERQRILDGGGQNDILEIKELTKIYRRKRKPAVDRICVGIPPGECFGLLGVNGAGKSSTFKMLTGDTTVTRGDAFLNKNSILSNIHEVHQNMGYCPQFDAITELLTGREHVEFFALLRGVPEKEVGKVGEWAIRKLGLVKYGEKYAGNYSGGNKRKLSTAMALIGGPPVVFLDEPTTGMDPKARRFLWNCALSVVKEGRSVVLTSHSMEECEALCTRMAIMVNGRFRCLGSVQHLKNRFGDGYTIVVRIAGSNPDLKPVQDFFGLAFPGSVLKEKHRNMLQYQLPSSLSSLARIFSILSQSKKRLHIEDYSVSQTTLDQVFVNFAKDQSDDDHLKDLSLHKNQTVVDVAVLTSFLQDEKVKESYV

percent of labeled L-37pA binding blocked [1]: 40% | cell-bound radiolabeled peptide in the absence of a competitor [2]: 35 | cholesterol and phospholipid efflux, ABCA1 cells against control cells, 18 hours [3]: 2 fold and 4 fold | concentration at which lipid efflux began to show saturation [3]: 2 µM
Binder: DWLKAFYDKVAEKLKEAFPDWLKAFYDKVAEKLKEAF [L-37pA peptide]
